The term Kd denotes the equilibrium constant for the complex coming apart.

These results are taken from publication PMC3130887 (Nature structural & molecular biology, 2011).

In assay [1] the target is ADD_(ATRX) (ATRX fragment 167–289) (human) (UniProt P46100). Briefly: ITC. For orientation: ITC needs no label: the signal is the heat of the interaction.
In assay [2] the target is T1, ADDATRX (Homo sapiens, UniProt P46100, F284Y/K251R).
T1 sequence (P46100 167-289 K251R/F284Y): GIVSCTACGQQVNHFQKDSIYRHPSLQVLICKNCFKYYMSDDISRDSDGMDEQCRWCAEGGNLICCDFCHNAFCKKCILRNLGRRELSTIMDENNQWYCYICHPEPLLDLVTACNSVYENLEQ
In kind it is binding. The settings on record: wild type ADDATRX; Kd n.d. in Fig. 4b.

In assay [3] the target is ADD_(ATRX) Y203A mutant (purified, for ITC) (human) (UniProt P46100). Briefly: ITC.
For assay [4], the target named is unmodified H3 tail (as used in the SPR assay). Briefly: SPR.

In assay [1], “H3 peptide trimethylated at both Lys4 and Lys9” yielded a Kd of 4.9 µM and a dH of -12 kcal/mol.
As to “H3_5–13K9me3: synthetic H3 peptide, residues 5–13, Lys9 trimethylated (QTARKSTGG; trimethyl-lysine at 9)”, in assay [2], the “binding in ITC titration” value is on record as “totally lost”.
In assay [3], “H3_(1–15)K9me3 peptide (from UniProt P68431 2-16)” showed a Kd of 4.6 µM and a dH of -4.7 kcal/mol.

B1: ADD_(ATRX) (as used in the SPR assay) (domain or fragment)
chain: KRGEDGLHGIVSCTACGQQVNHFQKDSIYRHPSLQVLICKNCFKYYMSDDISRDSDGMDEQCRWCAEGGNLICCDFCHNAFCKKCILRNLGRKELSTIMDENNQWYCYICHPEPLLDLVTACNSVFENLEQLLQQNKK
The molecule B1 yielded a Kd in assay [4] of 3.2 µM. This counts as single-digit micromolar.
